Data from patent publication US20100196385A1 (AstraZeneca / MedImmune, published 2010).

T1: human Dll1 (human, UniProt O00548 18-723)
T1 construct: whole, on cells
T1 sequence (looked up): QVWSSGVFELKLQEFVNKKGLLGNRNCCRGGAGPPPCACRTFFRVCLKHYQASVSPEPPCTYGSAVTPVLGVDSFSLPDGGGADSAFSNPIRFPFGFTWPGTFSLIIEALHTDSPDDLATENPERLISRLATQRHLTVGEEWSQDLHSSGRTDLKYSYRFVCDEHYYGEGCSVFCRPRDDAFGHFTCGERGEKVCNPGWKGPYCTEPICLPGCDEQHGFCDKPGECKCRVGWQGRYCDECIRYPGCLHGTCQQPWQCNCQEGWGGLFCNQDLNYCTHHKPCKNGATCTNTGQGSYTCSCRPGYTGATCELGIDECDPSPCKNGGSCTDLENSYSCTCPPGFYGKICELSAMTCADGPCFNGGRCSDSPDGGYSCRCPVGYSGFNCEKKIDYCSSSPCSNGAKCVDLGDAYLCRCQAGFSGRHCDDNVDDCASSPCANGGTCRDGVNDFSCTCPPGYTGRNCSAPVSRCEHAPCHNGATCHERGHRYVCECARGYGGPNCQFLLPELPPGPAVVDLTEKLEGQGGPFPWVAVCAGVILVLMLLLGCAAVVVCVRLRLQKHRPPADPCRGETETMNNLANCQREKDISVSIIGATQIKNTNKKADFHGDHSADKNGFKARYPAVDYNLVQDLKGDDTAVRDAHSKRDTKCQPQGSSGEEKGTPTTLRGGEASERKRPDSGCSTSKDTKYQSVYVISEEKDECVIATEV

B1: 21H3 (antibody, IgG4, V domains shown)
VH: QVQLVQSGAEVKKPGASVKVSCKASGYTFTNYGITWVRQAPGQGPEWMGWISAYNGNTNYAQKLQDRVTVTTDTSTSTAYMELRSLRSDDTAVYYCARDRVPRIPVTTEAFDIWGQGTMVTVSS
VL: QSVLTQPPSASGTPGQRVTISCSGSSSNIGSYFVYWYQQLPGTAPKLLIYRNNQRPSGVPDRFSGSESGTSASLAISGLRSEDEADYYCAAWDDSLSGHWVFGGGTRLTVL
notes: Fully human; used for IgG4 rows and where no isotype is printed; also called 21H3 IgG4
B2: 4B4 (antibody, IgG4, V domains shown)
VH: QVLLIQSGAEVKKPGASVQVSCKASGYTFTNYGVIWVRQAPGQGLEYMGWISAYNGNTNYAQKLQDRVTMTSDTSTTTAYMELRSLRSDDTAVYYCARELGSSFDYWGQGTLVTVSS
VL: SYELTQPPSVSVSPGQTARITCSGDALPKKYAYWYQQKSGQAPVLVIYEDIKRPSGIPERFSGSSSGTMATLTISGAQVEDEADYYCFSTDNSGDHSVFGGGTKLTVL
notes: Fully human; used for IgG4 rows and where no isotype is printed; also called 4B4 IgG4; 4B4.1
B3: 2H10 (antibody, IgG4, V domains shown)
VH: QVQLVESGGGVVQPGRSLRLSCAASGFTFSRHGMHWVRQAPGKGLEWVAVVWFDGSNIYYADSVKGRFTISRDNSKNTLYLQMNSLRAEDTAMYYCARDSRIAAADYWGQGTLVTVSS
VL: SYELTQPPSVSVSPGQTVSITCSGDKLGDKYVCWYQQKPGQSPVLVIYQESKRPSGIPERFSGSSSGNTATLTISGTQAMDEADYYCQTWDSSLVVFGGGTKLTVL
notes: Fully human; used for IgG4 rows and where no isotype is printed; also called 2H10 IgG4
B4: 9G8 (antibody, IgG4, V domains shown)
VH: QLQLQESGPGLVKPSETLSLSCTVSGGSISSSSSYWGLIRQPPGKGLEWIGSIYYSGSTYYSPSLKSRVSISVDTSKNQFSLKLSSVTAADTAVYFCARQGYGGHPDVFDIWGQGTMVTVSS
VL: SSELTQSPSVSVSPGQTARITCSGDKLGDVYVCWYQQKTGQSPVLVIYEDTKRPSGIPERFSGSNSGNTATLTISGTQVMDEADYYCQAWDSTTAVIFGGGTKLTVL
notes: Fully human; used for IgG4 rows and where no isotype is printed; also called 9G8 IgG4

How the values were obtained:
human Dll1 [1] = target: T1, human Dll1; test: FACS, 15 µg/ml, 293T cells with human Dll1
Outline: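 Read-out is the change in geometric mean fluorescence between mock-transfected and Jagged1- or Dll1-transfected cells. Anti-DLL4 antibodies bound to cells suspended in PBS containing 2% FCS during a 1 h incubation at 4 °C.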

full length human DLL4 [2] = target: T2, full length human DLL4 (human, UniProt Q9NR61 27-685); test: FACS competition, unlabeled antibody vs competitor Alexa-647 21H3RK, HEK293 cells with human DLL4
T2 construct: whole, on cells; also called native DLL4 expressed in HEK293 cells
Description: The ability of the purified DLL4 antibodies to inhibit the binding of other DLL4 antibodies to human DLL4 was assessed using a FACS assay. Briefly, antibodies were directly labelled with Alexa-647 using a commercially available labelling kit (e.g. Molecular Probes catalog #A30009, A-20186) as per the manufacturer's instructions. To determine the level of cross-competition, unlabelled anti-DLL4 antibodies (final concentration: 10-0.01 μg/ml) diluted in PBS containing 2% FCS were added to DLL4-expressing HEK 293 cells (as described in example 6; 50000 cells/well diluted in PBS containing 2% FCS) and incubated for 1 h at 4° C. Subsequently, Alexa-647 labeled anti-DLL4 antibodies were added at a final concentration of 0.1 μg/ml and plates were incubated for a further 1 h at 4° C. prior to washing and reading on a FACSCalibur instrument. Data that summarizes the ability of unlabeled antibodies (10, 1, 0.1 μg/ml) to compete with labeled 21H3RK for binding to human DLL4 is included in FIG. 3. Additional data that summarizes the ability of unlabeled antibodies to compete with labeled 21H3RK and 4B4 for binding to human DLL4 is included in Table 22.

full length human DLL4 [3] = target: T2, full length human DLL4; test: FMAT, hybridoma supernatant, 293T cells with human DLL4; FMAT, hybridoma supernatant, native full length human DLL4 on live 293T cells, room temperature
Description: (§1) Cells diluted in PBS containing 2% FBS were seeded at a density of 3000 expressing and 15000 mock transfected cells per well in 384 well plates (Corning Costar, catalog #3712). Immediately after plating, 15 or 20 μl/well of hybridoma supernatants and 10 μl/well of secondary antibody (Goat anti-human IgG Fc Cy5, final concentration 750 ng/ml) were added and plates incubated for 3 h at room temperature prior to reading the fluorescence on the FMAT 8200 instrument (Applied Biosystems). The binding of human Notch1/Fc chimera (R&D systems, catalog #3647-TK), diluted 1:2 from 2.86 μg/ml was used as a positive control for DLL4 and human Notch3/Fc chimera diluted from 10 μg/ml was used a positive control for binding to Jagged1. Results for 12 hybridoma supernatants showing binding of hybridoma supernatants to human/cynomolgus monkey DLL4 and human Jagged are shown in Table 3.

full length human DLL4 [4] = target: T2, full length human DLL4; test: FMAT competition, supernatant vs Alexa-647 human Notch1/Fc, 293T cells with human DLL4; FMAT competition with Alexa-647 human Notch1/Fc, native human DLL4 on 293T cells, 4 C, n = 2
Description: Transfected and untransfected 239T cells were reconstituted in PBS containing 2% FCS and 5000 transfected and 17500 non-transfected cells were plated in 20 μl into wells of a 384-well tissue culture plate (Corning Costar, catalog #3712). Subsequently, 20 μl of hybridoma supernatant was added and plates were incubated at 4° C. for 1 h, at which time 20 μl of Alexa-647 labeled human Notch1/Fc was added at a final concentration of 6.7 ng/ml. After a further 3 h incubation at 4° C., the amount of bound Notch1/Fc was determined by reading the fluorescence in each well using an FMAT 8200 instrument (Applied Biosystems). Results are expressed as % inhibitions with the minimum inhibition in the assay being determined by the effects of non-DLL4 binding supernatants prepared in a similar way as described in example 2, and the maximum inhibition being defined as the signal obtained in the presence of a saturating concentration of unlabeled Notch1/Fc. N.T.=not tested

human Dll1 [5] = target: T1, human Dll1; test: FACS, HEK-293 cells stably overexpressing human Dll1
human Jagged1 = target: T3, human Jagged1 (human, UniProt P78504 34-1218); test: FACS, HEK-293 cells stably overexpressing human Jagged1
T3 construct: whole, on cells
Description: The ability of the purified antibodies to bind to human Jagged1 and Dll1 was determined by FACS analysis. […] Cells were resuspended in PBS containing 2% FCS and seeded at 50000 cells/well into V-bottomed plates. Anti-DLL4 antibodies diluted in PBS containing 2% FCS were added at a final concentration of 5 or 15 μg/ml and plates were incubated for 1 h at 4° C. […] Data was analyzed by comparing the shift in geometric mean fluorescence in the mock-transfected cells to that observed in the Jagged1- or Dll1-transfected cells and is shown in Tables 16 and 17.

full length human DLL4 [6] = target: T2, full length human DLL4; test: FMAT, hybridoma supernatant, 293T cells with human DLL4
Description: as §1

T2 sequence (Q9NR61 27-685): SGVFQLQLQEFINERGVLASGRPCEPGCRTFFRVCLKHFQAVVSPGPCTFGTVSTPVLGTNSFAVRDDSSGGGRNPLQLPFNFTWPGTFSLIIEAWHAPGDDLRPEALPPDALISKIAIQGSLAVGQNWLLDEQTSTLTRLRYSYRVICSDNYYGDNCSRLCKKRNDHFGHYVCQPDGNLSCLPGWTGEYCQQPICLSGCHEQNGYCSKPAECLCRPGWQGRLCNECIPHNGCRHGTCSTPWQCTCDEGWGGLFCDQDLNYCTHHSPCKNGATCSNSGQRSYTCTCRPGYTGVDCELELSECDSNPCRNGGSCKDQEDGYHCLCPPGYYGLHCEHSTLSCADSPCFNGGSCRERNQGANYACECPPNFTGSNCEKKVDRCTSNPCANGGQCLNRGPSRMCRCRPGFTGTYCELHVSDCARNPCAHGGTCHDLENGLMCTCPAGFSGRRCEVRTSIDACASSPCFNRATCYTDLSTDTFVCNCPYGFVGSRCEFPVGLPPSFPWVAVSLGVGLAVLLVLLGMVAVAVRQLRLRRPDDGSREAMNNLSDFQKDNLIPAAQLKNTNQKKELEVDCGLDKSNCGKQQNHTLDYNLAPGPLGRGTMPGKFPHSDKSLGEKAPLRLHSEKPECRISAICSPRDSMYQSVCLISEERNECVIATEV
T3 sequence (P78504 34-1218): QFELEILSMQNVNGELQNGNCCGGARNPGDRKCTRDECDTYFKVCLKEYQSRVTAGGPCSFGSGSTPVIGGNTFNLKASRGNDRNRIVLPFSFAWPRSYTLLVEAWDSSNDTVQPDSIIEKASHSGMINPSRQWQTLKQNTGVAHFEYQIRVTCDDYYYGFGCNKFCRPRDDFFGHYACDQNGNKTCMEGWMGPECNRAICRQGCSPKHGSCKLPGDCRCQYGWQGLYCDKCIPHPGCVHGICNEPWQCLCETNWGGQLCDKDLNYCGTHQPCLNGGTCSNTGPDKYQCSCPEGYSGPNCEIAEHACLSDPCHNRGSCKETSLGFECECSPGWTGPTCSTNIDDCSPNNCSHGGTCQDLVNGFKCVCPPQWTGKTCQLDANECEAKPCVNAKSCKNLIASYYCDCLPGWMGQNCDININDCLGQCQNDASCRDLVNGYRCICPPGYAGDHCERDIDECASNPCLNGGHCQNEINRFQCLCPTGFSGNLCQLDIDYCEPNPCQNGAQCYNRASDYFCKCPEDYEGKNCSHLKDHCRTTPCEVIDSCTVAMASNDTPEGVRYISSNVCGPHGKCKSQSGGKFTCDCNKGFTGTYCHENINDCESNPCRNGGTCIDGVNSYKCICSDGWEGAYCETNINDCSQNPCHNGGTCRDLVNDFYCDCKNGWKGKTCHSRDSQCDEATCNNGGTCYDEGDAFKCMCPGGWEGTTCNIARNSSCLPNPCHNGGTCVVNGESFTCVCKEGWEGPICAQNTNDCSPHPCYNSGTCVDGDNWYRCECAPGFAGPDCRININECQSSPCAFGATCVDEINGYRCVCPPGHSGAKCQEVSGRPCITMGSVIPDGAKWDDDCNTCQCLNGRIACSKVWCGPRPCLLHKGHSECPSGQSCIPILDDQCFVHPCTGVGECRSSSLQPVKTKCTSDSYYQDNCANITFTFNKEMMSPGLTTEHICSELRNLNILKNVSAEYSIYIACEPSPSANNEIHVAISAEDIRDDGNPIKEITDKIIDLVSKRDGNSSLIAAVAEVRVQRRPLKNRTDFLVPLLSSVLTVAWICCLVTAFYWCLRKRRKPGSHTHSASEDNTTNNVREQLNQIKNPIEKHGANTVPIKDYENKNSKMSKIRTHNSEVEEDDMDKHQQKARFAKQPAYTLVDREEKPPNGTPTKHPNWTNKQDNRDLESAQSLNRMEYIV

| Binder | Dll1/293T X Geo mean (human Dll1 [1]) | IC50 (full length human DLL4 [2]) [µg/mL] | Count (full length human DLL4 [3]) | FL1 (full length human DLL4 [3]) | FL1 x count (full length human DLL4 [3]) | % inhibition n = 2 (full length human DLL4 [4]) [%] | binding result (human Dll1 [5]) | binding result (human Jagged1) | Count (full length human DLL4 [6]) | FL1 (full length human DLL4 [6]) | FL1 x count (full length human DLL4 [6]) |
| --- | --- | --- | --- | --- | --- | --- | --- | --- | --- | --- | --- |
| B1 | 32.4 | 0.248 | 181 | 10500 | 1.91e+06 | 131 | – | – | – | – | – |
| B2 | 25.9 | 0.379 | 194 | 9930 | 1.93e+06 | 109 | no binding | no binding | – | – | – |
| B3 | 44.1 | 0.723 | – | – | – | – | no binding | no binding | 191 | 10800 | 2.06e+06 |
| B4 | 32.3 | 0.596 | – | – | – | – | – | – | 198 | 9810 | 1.94e+06 |
